Measurements reported in patent US7119182B1 (The Regents of the University of California, priority 1991, dated 2006).
Changes are numbered by the printed parent chain. pIC50: −log10 of the molar value. Square brackets hold non-standard residues; d marks the D form. Peptide text beside a SMILES is read from it. Cha = N[C@@H](CC1CCCCC1)C(=O)O; Mpa = O=C(O)CCS

Assays:
thrombin = thrombin (Homo sapiens, UniProt P00734); test: Inhibition of thrombin-induced platelet activation (ATP secretion) by thrombin inhibitor peptides; type: cell-based
Description: (§1) About 20 μl Chromolume® reagent (Chronolog Corporation, Havertown, Pa.) is added. In addition to measuring aggregation, ATP secretion is assessed. […] Platelet ATP secretion is measured in a lumiaggregometer as luminescence signal. […] Preincubation is not necessary for testing agonists or antagonists which interact directly with the receptor.
Three antagonist peptides of the invention […] (LDPRP peptide) (SEQ ID NO:74), F^†[…] (F^†PRP peptide) (SEQ ID NO:224) and […] (shortened LDPRP peptide) (SEQ ID NO:190), were tested for their ability to inhibit thrombin-induced platelet activation. […] The mixtures were added in a total volume of 20 μl phosphate buffered saline to 480 μl of platelets prepared and suspended as described in the description under the heading “Assays” hereinabove. Various concentrations of the candidate peptides were used.

uninjected oocytes = test: Agonist activity on uninjected oocytes; type: cell-based, Xenopus laevis; conditions: uninjected oocytes (not shown)
Description: (§2) Briefly, intracellular calcium pools are labeled by incubating groups of 30 oocytes in 300 μl calcium-free MBSH containing 50 μCi ^45CaCl2 (10–40 mCi/mg Ca; Amersham) for 4 hours at RT. The labeled oocytes are washed, then incubated in MBSH II without antibiotics for 90 minutes. Groups of 5 oocytes are selected and placed in individual wells in a 24-well tissue culture plate (Falcon 3047) containing 0.5 ml/well MBSH II without antibiotics. This medium is removed and replaced with fresh medium every 10 minutes; the harvested medium is analyzed by scintillation counting to determine ^45Ca released by the oocytes during each 10-minute incubation. The 10-minute incubations are continued until a stable baseline of ^45Ca release per unit time is achieved. Two additional 10-minute collections are obtained, then test medium including agonist is added and agonist-induced ^45Ca release determined.
(§3) The control peptide […] (FSLL peptide) (SEQ ID NO:107) was added at 100 μM and elicited no response.
The agonist SFLL peptide has no activity on uninjected oocytes (not shown). Qualitatively identical results were obtained when agonist-induced inward current in voltage-clamped oocytes was used as an endpoint rather than agonist-induced ^45Ca release.

washed human platelets [1] = target: T1, washed human platelets (Homo sapiens, UniProt P25116); test: Platelet ATP secretion in response to agonist peptide; type: cell-based; conditions: for Platelet ATP secretion activity of control peptides: concentrations as high as 200 μM (not shown)
T1 sequence (P25116 42-425): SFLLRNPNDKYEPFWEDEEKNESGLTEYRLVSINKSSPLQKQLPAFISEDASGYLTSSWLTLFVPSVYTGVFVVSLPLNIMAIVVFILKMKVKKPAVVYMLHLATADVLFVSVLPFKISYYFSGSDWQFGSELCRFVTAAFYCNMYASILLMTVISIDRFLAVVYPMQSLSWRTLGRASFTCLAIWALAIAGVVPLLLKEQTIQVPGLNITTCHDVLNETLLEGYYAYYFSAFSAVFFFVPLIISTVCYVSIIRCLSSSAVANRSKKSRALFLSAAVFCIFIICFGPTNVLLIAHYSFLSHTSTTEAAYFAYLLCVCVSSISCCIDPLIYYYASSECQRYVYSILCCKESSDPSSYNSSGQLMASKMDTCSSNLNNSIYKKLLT
Description: as §1
Washed human platelets were prepared as described by Baenzinger, N. G., Meth Enz (1974) 31:149–155; and Charo, I. F., et al., J Clin Invest (1977) 63:866–873. Agonist-induced responses were assessed as described above.
Platelet ATP secretion in response to the indicated final concentrations of “new amino-terminal” peptide was also followed by lumiaggregometry, and the results are shown in FIG. 4.
The data shown in FIG. 4 are raw tracings representative of aggregation or secretion responses obtained in triplicate for each agonist concentration, and are representative of results obtained in more than five separate experiments.

washed human platelets [2] = target: T1, washed human platelets; conditions: for Platelet aggregation activity of control peptides: concentrations as high as 200 μM (not shown)
CCL-39 cells = test: Mitogenic effect, tritiated thymidine incorporation in CCL-39 fibroblasts; type: cell-based, hamster; conditions: 100 μM, 48 hours, quiescent CCL-39 in serum-free medium; FIG. 5
Description: The fibroblast cell line CCL-39 was made quiescent in serum-free medium and then treated for 48 hours with the candidate agonist in the presence of tritiated thymidine. The incorporation of label into DNA was then determined as TCA-insoluble activity, shown as cpm in FIG. 5 using standard techniques. The data shown in the figure represent the mean of six replicate determinations plus or minus 95% confidence.

[3] = target: T2, wild-type thrombin receptor (Homo sapiens, UniProt P25116, C364S/L238V); test: ^45Ca release by oocytes expressing wild-type thrombin receptor cRNA; type: cell-based; conditions: control peptide added at 100 μM
T2 construct: expressed in transfected cells; host or cells: Xenopus laevis oocytes microinjected with cRNA
T2 sequence (P25116 22-425 L238V/C364S): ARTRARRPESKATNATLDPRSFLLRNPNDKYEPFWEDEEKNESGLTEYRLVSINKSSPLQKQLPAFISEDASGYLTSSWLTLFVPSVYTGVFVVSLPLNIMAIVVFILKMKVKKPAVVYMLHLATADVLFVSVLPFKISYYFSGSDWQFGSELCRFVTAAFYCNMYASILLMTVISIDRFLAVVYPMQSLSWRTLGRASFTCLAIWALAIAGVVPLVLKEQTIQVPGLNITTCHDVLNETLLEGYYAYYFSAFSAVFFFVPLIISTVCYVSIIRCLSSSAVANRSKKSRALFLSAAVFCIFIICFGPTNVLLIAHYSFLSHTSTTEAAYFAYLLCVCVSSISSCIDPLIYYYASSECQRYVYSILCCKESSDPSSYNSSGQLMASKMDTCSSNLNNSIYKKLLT
Description: as §2, §3

thrombin receptor = target: T3, thrombin receptor (Homo sapiens, UniProt P25116); test: Platelet activation/aggregation assays in the presence of thrombin, antagonist peptides; type: cell-based; conditions: read-out: IC50 (50% inhibition of activation or aggregation)
T3 construct: In this assay, washed human platelets are prepared by the method of Baenzinger; endogenous in cells; host or cells: washed human platelets
T3 sequence (P25116 22-425): T2 sequence (P25116 22-425 L238V/C364S) with V217L, S343C
Description: Platelet Aggregation: In this assay, washed human platelets are prepared by the method of Baenzinger, M. G., Meth Enzymol (1974) 31:149–155, or as described by Charo, I. F., et al., J Clin Invest (1977) 63:866–873.
Washed platelets are suspended in modified Tyrode's buffer, pH 7.4 with 2 mM magnesium and 1 mM calcium at a concentration of 10^8 platelets/ml.
as §1
Platelet Aggregation Assay Using Microtiter Plates: Thrombin- or agonist-mediated platelet aggregation as measured with washed platelets in 96-well microtiter plates was performed as described (Fratantoni, J. C. et al., Am J Clin Pathol (1990) 94:613–617).

`CC(C)C[C@H](NC(=O)[C@H](CC(C)C)NC(=O)[C@H](Cc1ccccc1)NC(=O)[C@@H]1CCCN1C(=O)[C@H](CCCNC(=N)N)NC(=O)[C@@H]1CCCN1C(=O)[C@H](N)Cc1ccccc1)C(=O)N[C@@H](CCCNC(=N)N)C(=O)N[C@@H](CC(N)=O)C(=O)N1CCC[C@H]1C(=O)N[C@@H](CC(N)=O)C(=O)N[C@@H](CC(=O)O)C(=O)N[C@@H](CCCCN)C(=O)N[C@@H](Cc1ccc(O)cc1)C(=O)N[C@@H](CCC(=O)O)C(=O)N1CCC[C@H]1C(=O)N[C@@H](Cc1ccccc1)C(=O)N[C@@H](Cc1c[nH]c2ccccc12)C(=O)N[C@@H](CCC(=O)O)C(=O)N[C@@H](CC(=O)O)C(=O)N[C@@H](CCC(=O)O)C(=O)N[C@@H](CCC(=O)O)C(=O)N[C@@H](CCCCN)C(=O)N[C@@H](CC(N)=O)C(=O)N[C@@H](CCC(=O)O)C(=O)N[C@@H](CO)C(=O)O` [F^†PRP peptide] (H-[dF]PRPFLLRNPNDKYEPFWEDEEKNES-OH) was tested. Which pIC50 (thrombin) did it give?
Its pIC50 is roughly 6.70.

Which “agonist activity on uninjected oocytes” value (uninjected oocytes) does the source give for SFLLRNPNDKYEPF [“SFLL” peptide] here?
The value was “no activity”.

What about the “Platelet ATP secretion compared with thrombin” value (washed human platelets [1]; peptide at 100 μM, FIG. 4) of the same compound?
Its value is “comparably active to 20 μM thrombin”.

What about the “Platelet aggregation compared with thrombin” value (washed human platelets [2]; peptide at 100 μM, FIG. 4) of the same compound?
Its value is “comparably active to 20 μM thrombin”.

What about the “mitogenic effect (tritiated thymidine incorporation into DNA)” value (CCL-39 cells) of the same compound?
The value was “significant stimulation of growth”.

What does the source list for FSLLRNPNDKYEPF [FSLL peptide]?
peptide-induced ^45Ca release response [3]: no response; Platelet ATP secretion activity of control peptides (washed human platelets [1]): without activity; Platelet aggregation activity of control peptides (washed human platelets [2]): without activity

Which “Platelet ATP secretion activity of control peptides” value (washed human platelets [1]) does the source give for LLRNPNDKYEPF [reference compound] here?
Its value is “without activity”.

What about the “Platelet aggregation activity of control peptides” value (washed human platelets [2]) of the same compound?
The value was “without activity”.

`N=C(N)NCCC[C@H](NC(=O)[C@H](CC1CCCCC1)NC(=O)[C@H](CC1CCCCC1)NC(=O)[C@H](Cc1ccccc1)NC(=O)CCS)C(=O)N[C@@H](CC(N)=O)C(=O)N1CCC[C@H]1C(=O)N[C@@H](CC(N)=O)C(=O)N[C@@H](CC(=O)O)C(=O)N[C@@H](CCCCN)C(=O)N[C@@H](Cc1ccc(O)cc1)C(N)=O` [Mpr-F(Cha) (Cha)RNPNDKY-NH2] ([Mpa]F[Cha][Cha]RNPNDKY-NH2) was tested. Which pIC50 (thrombin receptor) did it give?
The pIC50 was 4.12.

With `N=C(N)NCCC[C@H](NC(=O)[C@H](CC1CCCCC1)NC(=O)[C@H](CC1CCCCC1)NC(=O)[C@H](Cc1ccccc1)NC(=O)CCS)C(=O)N[C@@H](Cc1ccccc1)C(=O)N1CCC[C@H]1C(=O)N[C@@H](CC(N)=O)C(=O)N[C@@H](CC(=O)O)C(=O)N[C@@H](CCCCN)C(N)=O` [Mpr-F(Cha) (Cha)RFPNDK-NH2] ([Mpa]F[Cha][Cha]RFPNDK-NH2) as the compound, how does the pIC50 (thrombin receptor) read?
Its pIC50 is less than 4.00.

How did the pIC50 (thrombin receptor) turn out when `C[C@H](NC(=O)[C@H](CCCNC(=N)N)NC(=O)[C@H](CC1CCCCC1)NC(=O)[C@H](CC1CCCCC1)NC(=O)[C@H](Cc1ccccc1)NC(=O)CCS)C(=O)N1CCC[C@H]1C(=O)N[C@@H](CC(N)=O)C(=O)N[C@@H](CC(=O)O)C(=O)N[C@@H](CCCCN)C(N)=O` [Mpr-F(Cha) (Cha)RAPNDK-NH2] ([Mpa]F[Cha][Cha]RAPNDK-NH2) was run?
Its pIC50 is 4.40.
